The record followed here is patent US9328143B2, “Peptide derivatives and use thereof as carriers for molecules in the form of conjugates” (VECT-HORUS, priority 2008, dated 2016).

Where no end group is shown, it is not given here. [ ]: non-standard residue; d: D form. Rhodamine = not defined here

Series [1] is described as follows: In situ perfusion in mouse, transport across the blood-retinal barrier. It is filed as in vivo. From the text:
(§1) This strategy of in situ brain perfusion normally carried out in the rat was adapted for mouse (Dagenais et al., 2000, J Cereb Blood Flow Metab., 20(2), 381-6) in order to broaden its application for evaluating the parameters of transport kinetics at the BBB and the blood-retinal barrier, in transgenic and KO mutant mice for the receptors, enzymes or transporters of active substances. It involves catheterisation of a carotid artery in anaesthetised OF 1 mice and ligature of some branches of this carotid artery (external, thyroidal, occipital) in order to specifically perfuse the internal carotid and pterygopalatine arteries, which are used to evaluate the uptake in the brain of the vectors and conjugates. The catheter makes it possible to replace general circulation by infusion with a well-controlled perfusate (bicarbonate buffer, plasma or blood) by passing by the carotid. Oxygenated Krebs bicarbonate buffer is first used to evaluate the capacities of the vectors and conjugates to gain access to the brain. After catheterisation of the carotid, endogenous blood flow is stopped by sectioning the ventricles of the heart in order to avoid the mixture of buffer with blood and elevation in blood pressure. The duration of the fixed flow-rate perfusion is monitored. The buffer perfusion can be extended up to 20 min, or up to 1 h in the presence of oxygen transporters (washed erythrocytes) for studies of receptor-mediated transport (RMT).
In addition, the Kin of these various peptides, across the blood-retinal barrier (BRB), were also determined. Kin of SEQ ID NO: 11=1.2±0.2×10^−4 ml/s/g Kin of SEQ ID NO: 48=2.4±0.3×10^−4 ml/s/g Kin of SEQ ID NO: 73=0.0±0.0×10^−4 ml/s/g Kin of SEQ ID NO: 72=11.5±3.3×10^−4 ml/s/g Kin of SEQ ID NO: 74=1.8±0.2×10^−4 ml/s/g

Series [2] in a line: In situ brain perfusion in mouse, transport across the BBB. In kind it is in vivo. How it is done: The in situ brain perfusion technique (in adult male OF1 mouse) is used here to select the best vectors and to provide proof of their mechanism of action for their passage in the brain across the BBB.
Radioactive peptides with high specific radioactivity (SRA, up to 100 Ci/mmol) are prepared by a strategy of acylation of the N-term amine function by tritiated propionic (or propanoic) anhydride or tritiated N-propionyl-succinimide (NPS).
The tritiation reaction of peptide vectors SEQ ID NO: 11 and SEQ ID NO: 48 in the N-term position by propionylation is carried out in DMF (1 mg peptide in 100 μl to 450 μl according to solubility) by adding 0.1 equivalent of tritiated NPS for 5 min at room temperature, then 0.9 equivalent of cold NPS (non-tritiated) for 1 h, and then a new equivalent of cold NPS for 5 h. The reaction medium is then left at 4° C. overnight and purified the following day by HPLC. The SRA for each tritiated peptide is between 5 Ci/mmol and 10 Ci/mmol (theoretically on the order of 7.7 Ci/mmol). The total quantity of radioactivity prepared by synthesis is between 600 μCi and 950 μCi.
The techniques briefly summarised below were developed to study the distribution in the brain of active substances and, in particular, the role of the BBB and, more particularly, of LDLR in the penetration of these molecules in the brain. In situ brain perfusion techniques are among the most technically demanding and the most difficult to perform in the mouse. However, in situ brain perfusion (like in vitro models) enables total control of the composition of the artificial perfusate in order to maintain the cells and vascularisation of the brain under normal physiological and anatomical conditions within the animal, without the disrupting factor of systemic distribution.
as §1
The study of peptide vector SEQ ID NO: 11 made it possible to determine its brain transport or transfer coefficient (Kin). The duration of brain perfusion for these experiments is 5 min with a perfusate flow rate of 2 ml/min. Thus, the calculation of the Kin (volume of distribution over time of brain perfusion) of peptide vector SEQ ID NO: 11 gives a value of 3.5±0.2×10^−4 ml/s/g.

The target of series [3] is T1, hLDLR (Homo sapiens, UniProt P01130). The series is described as follows: FACS on HUVEC: competition between peptides expressed by bacterial viruses and natural ligand LDL. In kind it is binding. The arrangement: endogenous in cells; host or cells: HUVEC (human umbilical vein endothelial cells), not genetically modified. From the text: Evaluation by FACS on HUVEC of competition between the peptides expressed by the bacterial viruses with affinity for LDLR and its natural ligand LDL.
I—Graph representing the percentage of shift of the fluorescence signal in zone Q2 of graphs A-H obtained by FACS. […] Adding LDL leads to an 85% loss of signal in Q2 in […], indicating competition between the bacterial virus corresponding to peptide sequence SEQ ID NO: 21 and LDL at the site where LDL binds to hLDLR. The equally strong signal in Q2 of the bacterial viruses that express peptide SEQ ID NO: 11 (shift greater than 70% compared to control bacterial viruses) is only slightly shifted (17%) by adding LDL.
First, it is shown that the binding rate of bacterial viruses expressing peptides with affinity for hLDLR (SEQ ID NO: 21 and SEQ ID NO: 11 are used here as examples) is proportional to the level of LDLR expression by HUVEC. FACS experiments carried out in the presence of LDL made it possible to show and quantify a strong shift (85%) of LDL by linear peptides (for example SEQ ID NO: 21), but a small shift (17%) by cyclic peptides (for example SEQ ID NO: 11).

Series [4] deals with T1, hLDLR. The series can be described thus: FACS: binding of bacterial viruses expressing peptides to HUVEC. The arrangement: endogenous in cells; host or cells: HUVEC (human umbilical vein endothelial cells), not genetically modified. How it is done: Evaluation by FACS of the interaction between HUVEC and two clones of bacterial viruses expressing peptides, one cyclic (SEQ ID NO: 11), the other linear (SEQ ID NO: 21), with affinity for hLDLR, compared with control bacterial viruses not expressing peptides with affinity for this receptor.
Qualitative immunocytochemistry was supplemented with quantitative flow cytometry (FACS) with suspended cells (GFP cell line, CHO-hLDLR-GFP cell line, human fibroblasts, HUVEC). These cells were grown in culture medium, mechanically unbound and dissociated (without trypsin), centrifuged, resuspended and incubated in the presence of various bacterial virus clones and anti-LDLR antibody, for 20 min at 4° C. in order to avoid any process of endocytosis. After washings, the bacterial viruses bound to cells were visualised with anti-viral envelope protein antibody. FACS analyses were carried out with a FACSCanto system (Becton Dickinson) using BD FACSDiva software. The number of positive cells was standardised with 5,000 events for each test. The results were expressed in arbitrary units of fluorescence.
FIGS. 9, 10, 11 correspond to the results obtained for peptides SEQ ID NO: 11, SEQ ID NO: 12 and SEQ ID NO: 21 on cells of the CHO-hLDLR-GFP cell line (FIG. 9), human fibroblasts (FIG. 10) and HUVEC (FIG. 11).

The subject of series [5] is bovine brain microvascular endothelial cells (BBMEC). The series can be described thus: Passage (Pe) across in vitro BBB model.
Method: The potential toxic effects of peptides on endothelial cells, the binding/accumulation of peptides in these cells, and the passage by transcytosis of peptides were evaluated on in vitro BBB models. The cells necessary to set up the model (co-culture of endothelial cells from brain microvessels and astrocytes) are bovine cells (bovine brain microvascular endothelial cells, BBMEC) sold by Cellial Technologies (Lens, France).
The in vitro BBB model brings into play a co-culture of BBMECs and astrocytes. […]
The culture medium of the lower chamber is collected at various times and fluorescence quantified by fluorimetric analysis. The results are expressed as endothelial surface permeability (Pe) in units of 10^−3 cm/min. […] Transendothelial electrical resistance (TEER), measured with an ohmmeter and expressed in ohm·cm^2, also makes it possible to measure BBB integrity in vitro during tests of passage across the BBB. […]
This analysis is carried out by measuring by fluorimetry the quantity of fluorescence accumulated in the receiver wells at various times (1 h, 4 h, 24 h). The integrity of the BBB in the various wells analysed was evaluated by simultaneous measurement of the level of LY that passes from one compartment to the other as a function of time.
The target in series [6] is T1, hLDLR. The series can be described thus: Binding and endocytosis of tracer-conjugated synthesised peptides in CHO-hLDLR-GFP cells (fluorescence, immunocytochemistry). In kind it is cell-based. The arrangement: expressed in transfected cells. The note with it: CHO-LDLR-GFP cells, tracer-conjugated peptide, vs control peptides. From the text:
GFP fluorescence is visible in green (A1, B1 and C1); that related to peptides, visualised by rhodamine or by binding of an anti-S-Tag antibody coupled to Alexa594 is visible in red (A2, B2 and C2); and the superimposing of red and green stains is visible in yellow/orange (A3, B3 and C3). […] S-Tag (a 15 amino acid peptide derived from sequence 1-15 of bovine pancreatic ribonuclease A) on the one hand can be recognised by an anti-S-Tag antibody for immunocytochemistry or FACS approaches, and on the other hand can reconstitute enzymatic activity by binding with ribonuclease S-protein (C-term portion, amino acids 21-124) in tests of activity in vitro using the FRETWorks S-Tag assay kit (Novagen 70724-3). The ribonuclease thus activated digests an RNA substrate releasing a masked fluorescent agent visualised by FRET (fluorescence resonance energy transfer) and quantified in a 96-well plate in a Beckmann spectrofluorimeter. For these FRET experiments, control CHO cells and GFP fused in the C-term position with hLDLR and mLDLR, which generates strong background noise at the wavelengths used for FRET, was replaced by red fluorescent protein (RFP). The stable cell lines generated for the FRET experiments are thus CHO-RFP and CHO-hLDLR-RFP. Experiments involving the incubation of peptides on various cells expressing hLDLR were performed.

The test system of series [7] is bovine brain microvascular endothelial cells (BBMEC). The series is described as follows: Binding and/or internalisation in endothelial cells of in vitro BBB model. It is filed as cell-based. The note with it: rhodamine fluorescence after cell lysis, 2 h, 5 h, 24 h. How it is done:
The medium is changed twice per week. […] This BBMEC medium is changed three times per week.
This analysis was carried out by lysis of endothelial cells at various times (2 h, 5 h, 24 h), and by fluorimetric measurements of the quantity of fluorescence (rhodamine) associated with the cells (membrane and cytoplasmic compartments obtained by centrifugation of these cells after lysis).

Setting [8] is: mouse in situ brain perfusion, BBB, 5 min, perfusate flow rate 2 ml/min, tritiated peptide.

T1 sequence (P01130 22-860): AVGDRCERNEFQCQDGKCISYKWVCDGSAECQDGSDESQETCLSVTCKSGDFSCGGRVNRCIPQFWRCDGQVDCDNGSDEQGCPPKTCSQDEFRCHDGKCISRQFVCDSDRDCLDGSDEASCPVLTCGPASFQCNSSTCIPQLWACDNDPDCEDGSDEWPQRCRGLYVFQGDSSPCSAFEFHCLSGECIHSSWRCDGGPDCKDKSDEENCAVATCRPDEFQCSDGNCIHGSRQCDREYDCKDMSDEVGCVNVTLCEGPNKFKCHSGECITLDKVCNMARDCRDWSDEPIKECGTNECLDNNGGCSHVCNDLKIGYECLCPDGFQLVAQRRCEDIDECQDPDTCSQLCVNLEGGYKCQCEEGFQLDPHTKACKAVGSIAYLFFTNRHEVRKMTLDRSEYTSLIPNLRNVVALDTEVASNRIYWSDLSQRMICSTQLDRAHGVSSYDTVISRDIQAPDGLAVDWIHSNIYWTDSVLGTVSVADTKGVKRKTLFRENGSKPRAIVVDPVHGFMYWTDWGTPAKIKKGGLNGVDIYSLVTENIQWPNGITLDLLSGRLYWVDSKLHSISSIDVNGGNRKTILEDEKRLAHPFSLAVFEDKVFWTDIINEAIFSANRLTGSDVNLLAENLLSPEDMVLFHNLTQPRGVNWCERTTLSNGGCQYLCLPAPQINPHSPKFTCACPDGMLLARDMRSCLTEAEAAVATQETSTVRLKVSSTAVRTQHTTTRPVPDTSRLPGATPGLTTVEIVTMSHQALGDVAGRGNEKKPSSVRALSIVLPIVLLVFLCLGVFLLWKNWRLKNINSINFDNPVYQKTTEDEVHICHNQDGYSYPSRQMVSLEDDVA

With “Y-(D)-AGFLRGFAL-(D)-CMPRLRGC (Y[dA]GFLRGFAL[dC]MPRLRGC; cysteine pairing not given here) [SEQ ID NO: 72]”, the “Kin across the blood-retinal barrier (BRB)” value in series [1] (mouse in situ perfusion, BRB) is recorded as 11.5±3.3 ×10^−4 ml/s/g. The “BRB crossing, factor vs non-vectorised free dalargin (SEQ ID NO: 74)” value in series [1] (ratio of Kin, BRB) is on record as 6.39. Also, the “Kin (brain transport or transfer coefficient)” value in series [2] (setting [8]) is reported as 19.6±3.9 ×10^−4 ml/s/g. In series [2] (ratio of Kin, BBB), the “passage in the brain, factor vs non-vectorised free dalargin (SEQ ID NO: 74)” value came out at 21.78.
As for “Y-(D)-AGFLR (Y[dA]GFLR) [SEQ ID NO: 74, analgesic therapeutic peptide, dalargin, reference compound]”, in series [1] (mouse in situ perfusion, BRB), the “Kin across the blood-retinal barrier (BRB)” value is on record as 1.8±0.2 ×10^−4 ml/s/g. In series [2] (setting [8]), the “Kin (brain transport or transfer coefficient)” value is 0.9±0.1 ×10^−4 ml/s/g.
Take “CMPRC [SEQ ID NO: 73, control peptide for the brain perfusion study, reference compound]”: the “Kin across the blood-retinal barrier (BRB)” value in series [1] (mouse, in vivo) is 0.0±0.0 ×10^−4 ml/s/g. Further, in series [2] (mouse, in vivo), the “Kin (brain transport or transfer coefficient)” value is 1.5±0.2 ×10^−4 ml/s/g.
TPSAHAMALQSLSVG [SEQ ID NO: 21]: the “effect of LDL on binding of peptides expressed by bacterial viruses” value in series [3] (FACS, LDL added) is listed as “strongly decreases the binding”. In series [3] (peptide expressed by bacterial viruses, in the presence of LDL), the “loss/shift of signal in Q2 on adding LDL” value is 85%. For the same substance, in series [4] (peptide expressed by bacterial virus clone, vs control bacterial viruses), the “shift of the signal in Q2 (FACS)” value is recorded as “significant shift”. The “percentage of shift of the fluorescence signal in zone Q2” value in series [4] (peptide expressed by bacterial viruses, without LDL) is “more than 55.8%”.
Take “SEQ ID NO: 1 conjugated with rhodamine: peptide SEQ ID NO: 1 conjugated in the C-term position with rhodamine via a spacer of three Gly residues (HLDCMPRGCFRNGGG-Rhodamine; cysteine pairing not given here; reading uncertain)”: the “rate of passage (Pe) across in vitro BBB” value was “cannot be distinguished from nonspecific or paracellular passage” in series [5] (1 h and 4 h); “quite significantly higher than that of the control peptide” in series [5] (24 h). For the same substance, in series [6], the “binding to cells expressing hLDLR” value is “bind well to CHO-LDLR-GFP cells”. The figures for the “endocytosis / intracellular accumulation” value in series [6] and in series [6] (listed as SEQ ID NO: 1/rhodamine) were “incorporated by endocytosis” and “high levels of intracellular staining”, respectively. For the same substance, the “binding and/or internalisation rate in endothelial cells” value in series [7] is reported as “more affinity for endothelial cells in an in vitro BBB model than the control peptide”.
